Experimental data: paper PMC5336275

Biological target: Thermus thermophilus SoxB (Thermus thermophilus) (UniProt Q72IT0)
Test: ITC; SoxB (50 μM) in the cell, SoxYZ as the titrant; 25°C; 30 mM Tris/HCl pH 8.0, 200 mM NaCl; two replicate experiments fitted together to a hetero-association model (A + B ↔ AB)

UniProt Q72IT0, sequence (Q72IT0 entry or part of it): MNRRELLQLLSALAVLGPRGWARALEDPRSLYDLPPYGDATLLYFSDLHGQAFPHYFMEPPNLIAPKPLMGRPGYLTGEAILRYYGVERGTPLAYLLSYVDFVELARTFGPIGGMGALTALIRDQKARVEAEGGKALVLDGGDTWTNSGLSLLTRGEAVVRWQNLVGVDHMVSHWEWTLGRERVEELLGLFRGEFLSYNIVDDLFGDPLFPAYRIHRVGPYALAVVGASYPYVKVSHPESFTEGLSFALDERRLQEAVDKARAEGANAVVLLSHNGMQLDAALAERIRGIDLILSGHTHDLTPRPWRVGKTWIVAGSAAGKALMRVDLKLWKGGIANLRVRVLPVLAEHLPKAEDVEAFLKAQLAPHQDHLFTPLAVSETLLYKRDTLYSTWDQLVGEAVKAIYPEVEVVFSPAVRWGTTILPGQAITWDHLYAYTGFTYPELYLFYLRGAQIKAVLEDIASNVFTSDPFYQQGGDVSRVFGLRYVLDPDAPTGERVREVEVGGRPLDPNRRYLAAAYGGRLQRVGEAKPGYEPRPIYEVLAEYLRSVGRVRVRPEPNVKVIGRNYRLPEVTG

Kd [µM]	dH [kcal/mol]	Substance
30	-2	Thermus thermophilus SoxYZ-S-sulfonate (from UniProt Q72IS6 1-152; Q72IS7 1-108) (complex)
10	-5	Thermus thermophilus SoxY_(C151E)Z variant (from UniProt Q72IS6 1-152; Q72IS7 1-108) (complex)
